{
  "source": "patent US20080008707A1",
  "about": "“Denatured collagen peptides and uses thereof” (Cell-Matrix, Inc., priority 2006, published 2008)",
  "key": {"denatured collagen III": {"target": "denatured collagen III", "test": "ELISA (data not shown)"}, "[1]": {"target": "human heat-denatured collagen type IV (human)", "sequence (P08572 other isoform, or with tags, fused parts or gaps)": "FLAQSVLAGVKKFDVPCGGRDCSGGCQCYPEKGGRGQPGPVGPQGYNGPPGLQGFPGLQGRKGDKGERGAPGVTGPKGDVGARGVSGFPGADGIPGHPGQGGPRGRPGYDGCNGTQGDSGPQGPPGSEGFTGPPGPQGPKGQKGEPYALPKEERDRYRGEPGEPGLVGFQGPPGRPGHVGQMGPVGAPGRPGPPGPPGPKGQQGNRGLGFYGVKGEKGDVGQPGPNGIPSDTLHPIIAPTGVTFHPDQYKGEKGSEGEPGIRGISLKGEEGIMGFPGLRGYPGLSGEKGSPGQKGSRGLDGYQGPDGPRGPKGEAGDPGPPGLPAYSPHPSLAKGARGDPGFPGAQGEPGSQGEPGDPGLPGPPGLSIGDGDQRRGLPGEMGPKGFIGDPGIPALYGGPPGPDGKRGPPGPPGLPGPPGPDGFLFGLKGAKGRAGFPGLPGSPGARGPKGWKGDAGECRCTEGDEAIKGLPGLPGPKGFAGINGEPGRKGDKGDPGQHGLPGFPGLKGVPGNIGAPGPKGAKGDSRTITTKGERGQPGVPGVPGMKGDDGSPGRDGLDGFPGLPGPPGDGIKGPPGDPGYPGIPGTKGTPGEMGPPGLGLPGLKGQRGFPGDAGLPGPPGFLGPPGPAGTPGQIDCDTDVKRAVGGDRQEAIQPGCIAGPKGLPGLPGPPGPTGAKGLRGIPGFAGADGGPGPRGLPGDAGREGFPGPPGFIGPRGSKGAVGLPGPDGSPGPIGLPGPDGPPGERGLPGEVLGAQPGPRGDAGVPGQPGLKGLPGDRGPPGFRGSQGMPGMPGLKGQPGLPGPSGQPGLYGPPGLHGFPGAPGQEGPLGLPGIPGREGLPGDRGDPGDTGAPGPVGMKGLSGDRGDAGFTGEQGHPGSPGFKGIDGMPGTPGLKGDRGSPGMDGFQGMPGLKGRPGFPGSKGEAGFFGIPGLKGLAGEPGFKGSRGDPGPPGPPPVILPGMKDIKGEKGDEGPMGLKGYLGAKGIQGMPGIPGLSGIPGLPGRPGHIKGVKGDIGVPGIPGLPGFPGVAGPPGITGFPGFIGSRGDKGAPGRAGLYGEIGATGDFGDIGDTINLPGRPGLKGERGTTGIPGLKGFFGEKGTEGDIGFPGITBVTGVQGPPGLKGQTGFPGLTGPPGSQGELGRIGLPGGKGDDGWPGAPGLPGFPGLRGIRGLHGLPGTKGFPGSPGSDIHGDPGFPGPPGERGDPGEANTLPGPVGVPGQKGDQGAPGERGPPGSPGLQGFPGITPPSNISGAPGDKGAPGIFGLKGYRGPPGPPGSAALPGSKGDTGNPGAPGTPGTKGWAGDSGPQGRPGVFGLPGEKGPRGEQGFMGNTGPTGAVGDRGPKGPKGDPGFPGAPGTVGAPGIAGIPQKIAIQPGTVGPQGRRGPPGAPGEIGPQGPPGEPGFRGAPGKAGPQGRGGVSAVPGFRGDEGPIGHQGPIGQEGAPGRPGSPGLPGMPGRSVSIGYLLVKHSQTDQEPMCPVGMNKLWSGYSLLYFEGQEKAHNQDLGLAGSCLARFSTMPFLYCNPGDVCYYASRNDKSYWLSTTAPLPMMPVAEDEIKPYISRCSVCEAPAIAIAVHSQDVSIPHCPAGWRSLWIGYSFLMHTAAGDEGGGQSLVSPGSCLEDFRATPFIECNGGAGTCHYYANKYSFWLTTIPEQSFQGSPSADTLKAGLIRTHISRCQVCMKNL", "test": "ELISA (data not shown)"}, "denatured collagen V": {"target": "denatured collagen V", "test": "ELISA (data not shown)"}, "[2]": {"target": "denatured collagen type-I (human) (UniProt P02452)", "sequence (P02452 21-1464 V1081A/Q1391K, chain 1 of 2)": "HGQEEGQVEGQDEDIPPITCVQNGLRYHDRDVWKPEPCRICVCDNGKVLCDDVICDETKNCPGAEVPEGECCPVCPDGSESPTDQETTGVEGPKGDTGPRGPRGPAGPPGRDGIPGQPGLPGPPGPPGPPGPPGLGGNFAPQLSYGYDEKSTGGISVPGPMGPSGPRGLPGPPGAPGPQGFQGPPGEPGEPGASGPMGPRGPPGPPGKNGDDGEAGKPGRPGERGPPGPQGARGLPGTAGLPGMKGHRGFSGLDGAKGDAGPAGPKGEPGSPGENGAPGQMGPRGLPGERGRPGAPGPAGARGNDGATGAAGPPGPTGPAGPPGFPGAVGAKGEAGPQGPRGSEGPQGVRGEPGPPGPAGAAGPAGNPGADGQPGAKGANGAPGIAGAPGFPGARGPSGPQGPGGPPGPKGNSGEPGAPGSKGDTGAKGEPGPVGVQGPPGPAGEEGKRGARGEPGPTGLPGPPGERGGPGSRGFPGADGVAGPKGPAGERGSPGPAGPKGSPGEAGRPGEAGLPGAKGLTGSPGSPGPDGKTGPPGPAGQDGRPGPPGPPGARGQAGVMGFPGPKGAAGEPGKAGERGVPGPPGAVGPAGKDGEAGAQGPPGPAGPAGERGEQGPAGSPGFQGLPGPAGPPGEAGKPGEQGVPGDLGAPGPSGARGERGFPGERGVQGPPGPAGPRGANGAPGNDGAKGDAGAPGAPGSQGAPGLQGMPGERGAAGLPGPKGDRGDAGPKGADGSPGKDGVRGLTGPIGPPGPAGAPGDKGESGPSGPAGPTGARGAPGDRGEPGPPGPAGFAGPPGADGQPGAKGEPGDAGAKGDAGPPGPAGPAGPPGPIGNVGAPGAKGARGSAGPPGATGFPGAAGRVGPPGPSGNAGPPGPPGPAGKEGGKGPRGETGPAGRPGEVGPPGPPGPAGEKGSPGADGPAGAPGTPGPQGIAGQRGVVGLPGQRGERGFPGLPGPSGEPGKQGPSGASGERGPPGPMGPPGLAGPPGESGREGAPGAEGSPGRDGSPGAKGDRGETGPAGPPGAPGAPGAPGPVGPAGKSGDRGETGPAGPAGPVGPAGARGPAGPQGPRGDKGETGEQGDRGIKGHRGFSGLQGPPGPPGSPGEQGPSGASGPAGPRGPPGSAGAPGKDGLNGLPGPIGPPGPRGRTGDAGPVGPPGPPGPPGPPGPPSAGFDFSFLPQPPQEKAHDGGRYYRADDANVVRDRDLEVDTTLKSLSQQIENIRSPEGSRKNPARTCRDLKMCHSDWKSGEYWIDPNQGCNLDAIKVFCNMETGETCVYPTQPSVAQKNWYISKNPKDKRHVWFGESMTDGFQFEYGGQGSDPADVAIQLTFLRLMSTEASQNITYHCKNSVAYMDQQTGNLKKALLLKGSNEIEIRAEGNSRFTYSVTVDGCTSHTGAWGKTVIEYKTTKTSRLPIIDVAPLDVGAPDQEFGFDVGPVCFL", "sequence (P02452 other isoform, or with tags, fused parts or gaps, chain 2 of 2)": "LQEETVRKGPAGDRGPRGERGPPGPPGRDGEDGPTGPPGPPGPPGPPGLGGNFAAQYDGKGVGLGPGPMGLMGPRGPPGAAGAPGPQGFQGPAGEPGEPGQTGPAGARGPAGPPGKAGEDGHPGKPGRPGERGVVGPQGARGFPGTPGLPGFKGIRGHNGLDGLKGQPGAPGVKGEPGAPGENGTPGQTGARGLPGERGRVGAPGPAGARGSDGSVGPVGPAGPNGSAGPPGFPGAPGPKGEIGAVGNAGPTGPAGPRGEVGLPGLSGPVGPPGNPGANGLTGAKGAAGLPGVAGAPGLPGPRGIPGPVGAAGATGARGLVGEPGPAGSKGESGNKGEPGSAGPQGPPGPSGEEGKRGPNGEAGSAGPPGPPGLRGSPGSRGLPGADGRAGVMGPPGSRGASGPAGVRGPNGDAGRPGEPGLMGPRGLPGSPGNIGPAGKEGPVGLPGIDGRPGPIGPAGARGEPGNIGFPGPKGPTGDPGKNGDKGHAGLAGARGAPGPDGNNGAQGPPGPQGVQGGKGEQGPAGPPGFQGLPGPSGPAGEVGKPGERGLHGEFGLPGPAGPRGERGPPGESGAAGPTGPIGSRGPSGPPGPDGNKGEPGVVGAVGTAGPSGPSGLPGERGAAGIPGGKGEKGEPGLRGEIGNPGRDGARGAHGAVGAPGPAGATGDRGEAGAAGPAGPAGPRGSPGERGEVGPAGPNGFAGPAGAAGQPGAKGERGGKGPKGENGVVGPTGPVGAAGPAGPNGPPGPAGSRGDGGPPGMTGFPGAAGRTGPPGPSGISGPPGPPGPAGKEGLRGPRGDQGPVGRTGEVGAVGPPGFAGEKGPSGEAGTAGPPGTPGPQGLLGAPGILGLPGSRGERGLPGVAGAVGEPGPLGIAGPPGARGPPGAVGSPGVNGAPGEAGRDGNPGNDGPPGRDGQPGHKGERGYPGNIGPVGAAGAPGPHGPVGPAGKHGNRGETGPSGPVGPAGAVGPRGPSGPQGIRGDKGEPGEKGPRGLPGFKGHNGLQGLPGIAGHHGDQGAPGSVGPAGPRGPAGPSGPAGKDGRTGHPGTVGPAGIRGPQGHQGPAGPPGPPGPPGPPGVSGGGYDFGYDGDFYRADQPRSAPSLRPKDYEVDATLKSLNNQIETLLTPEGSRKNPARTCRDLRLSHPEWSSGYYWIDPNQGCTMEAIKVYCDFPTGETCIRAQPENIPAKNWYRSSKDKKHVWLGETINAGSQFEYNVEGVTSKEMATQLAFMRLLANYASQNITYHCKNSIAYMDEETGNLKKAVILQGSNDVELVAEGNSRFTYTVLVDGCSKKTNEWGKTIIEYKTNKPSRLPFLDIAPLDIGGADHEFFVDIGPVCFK", "test": "cell-based or functional assay"}, "[3]": {"target": "human heat-denatured collagen type IV (human)", "test": "ELISA"}, "[4]": {"target": "denatured collagen type-I (human) (UniProt P02452)", "test": "ELISA"}, "[5]": {"target": "human heat-denatured collagen type IV (human)", "test": "ELISA, wells coated with human heat-denatured collagen IV, anti-mouse IgM-HRP, read at 450 nm"}, "D93": {"test_system": "D93", "test": "Peptide array screening ELISA: D93 binding to biotinylated synthetic collagen peptides", "settings": "for binding activity by D93 (primary peptide array): 10 μg/mL D93, 16-mers with N-terminal biotin, 50% proline/hydroxyproline mixture at each proline; for MAB BINDING (OD450nM): D93 at 10 μg/mL, average of duplicate tests, secondary array, proline or hydroxyproline at each proline position", "procedure": "The synthesis of short peptide arrays or single peptides was contracted to New England Peptide, Gardner, Mass. A peptide array (primary array) was initially constructed which corresponded to specific locations in the protein sequences that were identified in by N-terminal sequencing reactions as described above. The peptide array consisted of a 96-well microplate template containing individual, overlapping peptides (˜1 to 10 mg/well) corresponding to a contiguous sequence of the human collagen type alpha I chain (between residues G1,064 and T1,669) with an N-terminal biotin and 50% hydroxyproline or proline mixture for each proline residue, with a length of 16 amino acids and overlap of 10 amino acids with the adjacent protein sequence. Peptides were dissolved in 400 μL DMSO to achieve a stock peptide concentration of 2.5 to 25 mg/mL.\nThe ELISA assay described above was used screen peptides for D93 binding activity. Briefly, 100 μL of streptavidin at 10 μg/mL in PBS was coated onto 96-well microtiter plates from 12 to 18 hours at 2 to 8° C. Plates were blocked with 1% BSA/PBS as above. D93 was diluted to 10 μg/mL in 1% BSA/PBS, and 100 μL per well was added, in duplicate, as described above and incubated for 1 hour at room temperature. The secondary anti-human IgG-HRP, substrate development and plate reader steps were as described above. Peptides which were bound by D93 were further tested for inhibition of D93 binding to human heat-denatured-collagen IV using the ELISA described above. Peptides and D93 antibody were prepared at a 2× concentration in 1% BSA/PBS of the final test concentration and pre-mixed in 1.7 mL microfuge for 15 minutes prior to adding to the microplate wells.\nA second peptide array was constructed based on permutations of the protein sequence (collagen IV alpha I chain residues 1337-1352, termed “peptide 40” of the primary array) in the primary array that reacted with D93. The secondary array consisted of individual peptides with either proline or hydroxyproline at each proline residue in the peptide PGAKGLPGPPGPPGPY (SEQ ID NO: 1)."}, "[6]": {"target": "biotinylated synthetic collagen peptide α1(IV) P1337-Y1352 (human)", "test": "SPR, medium density biotinylated peptide surface on streptavidin, avidity model (second binding step), CLAMP"}, "[7]": {"target": "human heat-denatured collagen type IV (human)", "test": "SPR, low density denatured collagen IV surface, avidity model, CLAMP"}, "[8]": {"target": "human heat-denatured collagen type IV (human)", "test": "SPR, high density denatured collagen IV surface, avidity model, CLAMP"}, "[9]": {"target": "human heat-denatured collagen type IV (human)", "test": "SPR, medium density denatured collagen IV surface, avidity model, CLAMP"}, "[10]": {"target": "biotinylated synthetic collagen peptide α1(IV) P1337-Y1352 (human)", "test": "SPR, high density biotinylated peptide surface on streptavidin, avidity model (second binding step), CLAMP"}, "[11]": {"target": "biotinylated synthetic collagen peptide α1(IV) P1337-Y1352 (human)", "test": "SPR, high density biotinylated peptide surface on streptavidin, avidity model, CLAMP"}, "[12]": {"target": "biotinylated synthetic collagen peptide α1(IV) P1337-Y1352 (human)", "test": "SPR, low density biotinylated peptide surface on streptavidin, simple 1:1 interaction model, CLAMP"}, "[13]": {"target": "biotinylated synthetic collagen peptide α1(IV) P1337-Y1352 (human)", "test": "SPR (Biacore), medium density biotinylated peptide on streptavidin chip, monomeric D93 Fab"}, "[14]": {"target": "biotinylated synthetic collagen peptide α1(IV) P1337-Y1352 (human)", "test": "SPR, medium density biotinylated peptide surface on streptavidin, avidity model, CLAMP"}, "[15]": {"target": "dn-collagen or synthetic peptide (sensor chips with a low or medium density)", "test": "SPR (Biacore), bivalent antibody binding, avidity model"}, "[16]": {"target": "human heat-denatured collagen type IV (human)", "test": "SPR (Biacore), medium density dn-collagen on CM5 chip, monomeric (one Fab region) binding"}, "[17]": {"target": "human heat-denatured collagen type IV (human)", "test": "SPR (Biacore), low density dn-collagen on CM5 chip, monomeric (one Fab region) binding"}, "[18]": {"target": "biotinylated synthetic collagen peptide α1(IV) P1337-Y1352 (human)", "test": "SPR (Biacore), high density biotinylated peptide on streptavidin chip, monomeric D93 Fab"}, "[19]": {"target": "human heat-denatured collagen type IV (human)", "test": "SPR (Biacore), high density dn-collagen on CM5 chip, monomeric (one Fab region) binding"}, "[20]": {"target": "human heat-denatured collagen type IV (human)", "test": "SPR, high density denatured collagen IV surface, avidity model (second binding step), CLAMP"}, "[21]": {"target": "human heat-denatured collagen type IV (human)", "test": "SPR, low density denatured collagen IV surface, avidity model (second binding step), CLAMP"}, "[22]": {"target": "biotinylated synthetic collagen peptide α1(IV) P1337-Y1352 (human)", "test": "SPR (Biacore), low density biotinylated peptide on streptavidin chip, monomeric D93 Fab"}, "[23]": {"target": "human heat-denatured collagen type IV (human)", "test": "SPR, medium density denatured collagen IV surface, avidity model (second binding step), CLAMP"}, "[24]": {"target": "D93, recombinant humanized IgG1 kappa antibody targeting denatured-collagen", "sequence (heavy, as listed by the source, chain 1 of 2)": "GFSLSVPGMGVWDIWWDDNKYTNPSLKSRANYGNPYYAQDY", "sequence (light, as listed by the source, chain 2 of 2)": "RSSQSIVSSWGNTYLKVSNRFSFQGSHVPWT", "test": "competition ELISA on coated human dn-collagen IV; * separate assay"}, "[25]": {"target": "HUI77, murine IgM anti-denatured-collagen monoclonal antibody", "test": "competition ELISA on coated dn-collagen IV; * separate assay"}},
  "note": "Ends that are not written are not given here.",
  "data": [
    {"molecule": "HUI77, murine IgM anti-denatured-collagen monoclonal antibody", "values": [
      {"measurement": "fold tighter binding, denatured over native form", "setting": "denatured collagen III", "value": 7, "unit": "fold"},
      {"measurement": "fold tighter binding, denatured over native form", "setting": "[1]", "value": 8, "unit": "fold"},
      {"measurement": "fold tighter binding, denatured over native form", "setting": "denatured collagen V", "value": 10, "unit": "fold"},
      {"measurement": "inhibition of human endothelial cell adhesion to denatured collagen type-I", "setting": "[2]", "value": 40, "unit": "%"},
      {"measurement": "inhibition of human endothelial cell migration on denatured collagen-I", "setting": "[2]", "value": 80, "unit": "%"},
      {"measurement": "fold affinity, denatured over native collagen type-IV", "setting": "[3]", "value": 10, "unit": "fold"},
      {"measurement": "fold apparent reactivity, denatured over native collagen type-I", "setting": "[4]", "value": "> 10", "unit": "fold"},
      {"measurement": "EC50 (read off the curve)", "setting": "[5]", "value": 0.1, "unit": "µg/mL"}
    ]},
    {"molecule": "peptide 40: primary array peptide, collagen IV alpha I chain residues 1337-1352, 50% proline/hydroxyproline mixture; b687 equates it with SEQ ID NO: 2 (XGAKGLPGPXGPXGPY; not fully specified; X: randomised place (mixture))", "values": [
      {"measurement": "binding activity by D93 (primary peptide array)", "setting": "D93", "value": "higher activity than the others"}
    ]},
    {"molecule": "13: peptide 13 of the primary collagen IV alpha 1 array: biotinylated 16-mer, 50% proline/hydroxyproline at each proline (PGAKGLPGPPGPPGPY; not fully specified; also: biotinylated, position not given here) [compound 13]", "values": [
      {"measurement": "binding activity by D93 (primary peptide array)", "setting": "D93", "value": "higher activity than the others"},
      {"measurement": "MAB BINDING (OD450nM)", "setting": "D93", "value": 0.348, "unit": "OD450nM"}
    ]},
    {"molecule": "D93, recombinant humanized IgG1 kappa antibody targeting denatured-collagen", "values": [
      {"measurement": "ka2", "setting": "[6]", "value": "5.2e-06", "unit": "RU s-1"},
      {"measurement": "kd2", "setting": "[6]", "value": 0.006, "unit": "s⁻¹"},
      {"measurement": "koff", "setting": "[7]", "value": 0.33, "unit": "s⁻¹"},
      {"measurement": "kon", "setting": "[7]", "value": 32700, "unit": "M⁻¹ s⁻¹"},
      {"measurement": "koff", "setting": "[8]", "value": 0.038, "unit": "s⁻¹"},
      {"measurement": "kon", "setting": "[8]", "value": 5800, "unit": "M⁻¹ s⁻¹"},
      {"measurement": "koff", "setting": "[9]", "value": 0.21, "unit": "s⁻¹"},
      {"measurement": "kon", "setting": "[9]", "value": 26800, "unit": "M⁻¹ s⁻¹"},
      {"measurement": "ka2", "setting": "[10]", "value": "6.6e-06", "unit": "RU s-1"},
      {"measurement": "kd2", "setting": "[10]", "value": 0.014, "unit": "s⁻¹"},
      {"measurement": "koff", "setting": "[11]", "value": 0.057, "unit": "s⁻¹"},
      {"measurement": "kon", "setting": "[11]", "value": 41900, "unit": "M⁻¹ s⁻¹"},
      {"measurement": "koff", "setting": "[12]", "value": 0.52, "unit": "s⁻¹"},
      {"measurement": "kon", "setting": "[12]", "value": 42800, "unit": "M⁻¹ s⁻¹"},
      {"measurement": "Kd", "setting": "[13]", "value": 1.7, "unit": "µM"},
      {"measurement": "koff", "setting": "[14]", "value": 0.1, "unit": "s⁻¹"},
      {"measurement": "kon", "setting": "[14]", "value": 57800, "unit": "M⁻¹ s⁻¹"},
      {"measurement": "Kd", "setting": "[15]", "value": "0.03 to 0.063", "unit": "µM"},
      {"measurement": "Kd", "setting": "[16]", "value": 7.8, "unit": "µM"},
      {"measurement": "Kd", "setting": "[17]", "value": 10, "unit": "µM"},
      {"measurement": "Kd", "setting": "[18]", "value": 1.3, "unit": "µM"},
      {"measurement": "Kd", "setting": "[19]", "value": 6.5, "unit": "µM"},
      {"measurement": "ka2", "setting": "[20]", "value": "4.3e-06", "unit": "RU s-1"},
      {"measurement": "kd2", "setting": "[20]", "value": 0.0024, "unit": "s⁻¹"},
      {"measurement": "ka2", "setting": "[21]", "value": "7.1e-06", "unit": "RU s-1"},
      {"measurement": "kd2", "setting": "[21]", "value": 0.00099, "unit": "s⁻¹"},
      {"measurement": "Kd", "setting": "[22]", "value": 11, "unit": "µM"},
      {"measurement": "ka2", "setting": "[23]", "value": "1.8e-06", "unit": "RU s-1"},
      {"measurement": "kd2", "setting": "[23]", "value": 0.0017, "unit": "s⁻¹"}
    ]},
    {"molecule": "1 (PGAKGLPGPPGPPGPY) [compound 1]", "values": [
      {"measurement": "MAB BINDING (OD450nM)", "setting": "D93", "value": 0.136, "unit": "OD450nM"}
    ]},
    {"molecule": "LPGFPG (also: hydroxyproline marking, if any, lost)", "note": "[synthetic peptide No. 24, LPGFPG (SEQ ID NO: 38)]", "values": [
      {"measurement": "% inhibition of D93 binding to dn-collagen IV, peptide 1 µM", "setting": "[24]", "value": 5.4, "unit": "%"},
      {"measurement": "% inhibition of D93 binding to dn-collagen IV, peptide 10 µM", "setting": "[24]", "value": 7.8, "unit": "%"},
      {"measurement": "% inhibition of D93 binding to dn-collagen IV, peptide 100 µM", "setting": "[24]", "value": 8.3, "unit": "%"},
      {"measurement": "% inhibition of D93 binding to dn-collagen IV, peptide 1000 µM", "setting": "[24]", "value": 11.6, "unit": "%"},
      {"measurement": "% inhibition of HUI77 binding to dn-collagen IV, peptide 10 µM", "setting": "[25]", "value": 10.2, "unit": "%"},
      {"measurement": "% inhibition of HUI77 binding to dn-collagen IV, peptide 100 µM", "setting": "[25]", "value": 0, "unit": "%"},
      {"measurement": "% inhibition of HUI77 binding to dn-collagen IV, peptide 1000 µM", "setting": "[25]", "value": 3.7, "unit": "%"}
    ]}
  ]
}
